B1: DVD2-Ig: DVD-Ig as DVD1-Ig but with linkers ADAAP (light chain) and AKTTPP (heavy chain) (antibody)
VH: MQLSGLTSEDSAMYFCVRFPTGNDYYAMDYWGQGTSVTVSSAKTTPPQIQLVQSGPELKKPGETVKISCKASGYTFRNYGMNWVKQAPGKDLKRMAWINTYTGESTYADDFKGRFAFSLETSASTAYLQINNLKNEDTATYFCARGIYYYGSSYAMDYWGQGTSVTVSS
VL: PVEADDAATYYCQQNNEDPFTFGSGTKLEIKRADAAPNIQMTQTTSSLSASLGDRVTISCRASQDISNCLNWYQQKPDGTVKLLIYYTSRLHSGVPSRFSGSGSGTDYSLTISNLEQEDIATYFCQQGKTLPYAFGGGTKLEINR
B2: DVD1-Ig: DVD-Ig binding hIL-1α and hIL-1β; VH/VL of 13F5.G5 fused directly to N-terminus of 3D12.E3 VH/VL, no linker (antibody)
VH: MQLSGLTSEDSAMYFCVRFPTGNDYYAMDYWGQGTSVTVSSQIQLVQSGPELKKPGETVKISCKASGYTFRNYGMNWVKQAPGKDLKRMAWINTYTGESTYADDFKGRFAFSLETSASTAYLQINNLKNEDTATYFCARGIYYYGSSYAMDYWGQGTSVTVSS
VL: PVEADDAATYYCQQNNEDPFTFGSGTKLEIKRNIQMTQTTSSLSASLGDRVTISCRASQDISNCLNWYQQKPDGTVKLLIYYTSRLHSGVPSRFSGSGSGTDYSLTISNLEQEDIATYFCQQGKTLPYAFGGGTKLEINRR

Experiments:
[1] = Size exclusion chromatography (SEC): physical homogeneity and in vitro stability; assay type: physicochemical; settings: for Ab (intact antibody) / Agg (aggregates) / Frgm (fragments): 0.2-0.4 mg/ml in PBS; for Ab (intact antibody) / Agg (aggregates) / Frgm (fragments) / aggregation and fragmentation in stability analysis: SEC; for aggregation and fragmentation in stability analysis: PBS, freeze-thaw, 4, 25, 40° C. for 4 and 8 weeks; for SEC profile of purified protein (physical homogeneity): purified protein in PBS
Protocol: For measuring molecular weight (MW) of light and heavy chains of DVD-Ig binding protein, 10 μL of DVD-Ig molecule (0.8 μg/μL) was reduced by 1.0 M DTT solution (5 μL). A PLRP-S, 8μ, 4000 A, and 1×150 mm protein column (Michrom BioResource, Auburn, Mass.) was used to separate heavy and light chains of DVD-Ig molecule. Agilent HP1100 Capillary HPLC (Agilent Technologies Inc., Pala Alto, Calif.) was used with the mass spectrometer QSTAR (Applied Biosystems, Foster City, Calif.). The valco valve was set at 10 minutes to switch the flow from waste to MS for desalting sample. Buffer A was 0.02% TFA, 0.08% FA, 0.1% ACN and 99.8% HPLC-H2O. Buffer B contained 0.02% TFA, 0.08% FA, 0.1% HPLC-H2O, and 99.8% ACN. The HPLC flow rate was 50 μL/minute and the sample injection volume was […]. The temperature of the column oven was set at 60° C., and separation gradient was: 5% B for 5 minutes; 5% B to 65% B for 35 minutes; 65% B to 95% B for another 5 minutes, and 95% B to 5% B for 5 minutes. TOFMS scan was from 800 to 2500 amu, and cycles were 3600. To determine the MW of full length DVD-Ig binding protein, a Protein MicroTrap cartridge (Michrom BioResource, Auburn, Mass.) was used for desalting the sample. The HPLC gradient was: 5% B for 5 minutes; 5% B to 95% B in 1 minute; and from 95% B to 5% B in another 4 minutes. The QSTAR TOFMS scan was from 2000 to 3500 amu, and cycles were 899. All MS raw data were analyzed using the Analyst QS software (Applied Biosystems). For SEC analysis of the DVD-Ig binding protein, purified DVD-Ig binding protein and chimeric Abs, in PBS, were applied on a Superose 6 10/300 G2, 300×10 mm column (Amersham Bioscience, Piscataway, N.J.). An HPLC instrument, Model 10A (Shimadzu, Columbia, Md.) was used for SEC. All proteins were determined using UV detection at 280 nm and 214 nm. The elution was isocratic at a flow rate of 0.5 mL/minute. For stability study, samples in the concentration range of 0.2-0.4 mg/ml in PBS underwent 3 freeze-thaw cycles between −80° C. and 25° C., or were incubated at 4° C., 25° C., or 40° C., for 4 weeks and 8 weeks, followed by SEC analysis.
In order to determine the precise molecular weight of the DVD-Ig binding proteins, mass spectrometry was employed. […] To further study the physical properties of DVD-Ig binding protein in solution, size exclusion chromatography (SEC) was used to analyze each protein.
The physical stability of DVD-Ig was tested as follows. Purified antibodies in the concentration range of 0.2-0.4 mg/ml in PBS underwent 3 freeze-thaw cycles between −80° C. and 25° C., or were incubated at 4° C., 25° C., or 40° C., for 4 weeks and 8 weeks, followed by analysis using size exclusion chromatography (SEC) analysis (see Table 12).

hIL-1α = target: T1, hIL-1α (Homo sapiens, UniProt P01583); test: Surface plasmon resonance (Biacore) binding kinetics and affinity to hIL-1α; settings: antigen hIL-1α; for Kd: KD=koff/kon
T1 sequence (P01583 113-271): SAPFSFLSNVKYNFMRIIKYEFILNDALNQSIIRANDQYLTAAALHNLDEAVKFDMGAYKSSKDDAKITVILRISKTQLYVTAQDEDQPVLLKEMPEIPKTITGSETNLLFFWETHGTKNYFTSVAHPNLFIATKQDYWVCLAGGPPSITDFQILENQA
Protocol: The kinetics of DVD-Ig molecules binding to rhIL1-α and rhIL1-β was determined by surface plasmon resonance-based measurements with a Biacore 3000 instrument (Biacore AB, Uppsala, Sweden) using HBS-EP (10 mM HEPES, pH 7.4, 150 mM NaCl, 3 mM EDTA, and 0.005% surfactant P20) at 25° C. All chemicals were obtained from Biacore AB (Uppsala, Sweden) or otherwise from a different source as described herein. Approximately, 5000 RU of goat anti-human IgG Fcγ fragment specific polyclonal antibody (Pierce Biotechnology Inc, Rockford, Ill.) diluted in 10 mM sodium acetate (pH 4.5) was directly immobilized across a CM5 research grade biosensor chip using a standard amine coupling kit according to manufacturer's instructions and procedures at […]. Unreacted moieties on the biosensor surface were blocked with ethanolamine. Modified carboxymethyl dextran surface in flowcell 2 and 4 was used as a reaction surface. Unmodified carboxymethyl dextran without goat anti-human IgG in flow cell 1 and 3 was used as the reference surface. For kinetic analysis, rate equations derived from the 1:1 Langmuir binding model were fitted simultaneously to association and dissociation phases of all ten injections (using global fit analysis) using the Bioevaluation 4.0.1 software. Purified DVD-Ig samples were diluted in HEPES-buffered saline for capture across goat anti-human IgG Fc specific reaction surfaces and injected over reaction matrices at a flow rate of […]. The association and dissociation rate constants, kon (M-1s-1) and koff (s-1) were determined under a continuous flow rate of […]. Rate constants were derived by making kinetic binding measurements at ten different antigen concentrations ranging from 1.25 to 1000 nM. The equilibrium dissociation constant (M) of the reaction between DVD-Ig molecule and rhIL1α/β was then calculated from the kinetic rate constants by the following formula: KD=koff/kon. Aliquots of rhIL1α/β samples were also simultaneously injected over a blank reference and reaction CM surface to record and subtract any nonspecific binding background to eliminate the majority of the refractive index change and injection noise. Surfaces were regenerated with two subsequent […] injections of 10 mM Glycine (pH 1.5) at a flow rate of […]. The anti-Fc antibody immobilized surfaces were completely regenerated and retained their full capture capacity over twelve cycles. The apparent stoichiometry of the captured DVD-Ig-rhIL1α/β complex was calculated under saturating binding conditions (steady-state equilibrium) using the following formula: […]

[2] = 3xFreeze-Thaw between −80° C. and 25° C.

Molecule	Ab (intact antibody) [1, 2]	Agg (aggregates) [1, 2]	Frgm (fragments) [1, 2]	Ab (intact antibody) ([1]; 4° C. @ 4 Wks)	Agg (aggregates) ([1]; 4° C. @ 4 Wks)	Frgm (fragments) ([1]; 4° C. @ 4 Wks)	Ab (intact antibody) ([1]; 4° C. @ 8 Wks)	Agg (aggregates) ([1]; 4° C. @ 8 Wks)	Frgm (fragments) ([1]; 4° C. @ 8 Wks)	Ab (intact antibody) ([1]; 25° C. @ 4 Wks)	Agg (aggregates) ([1]; 25° C. @ 4 Wks)	Frgm (fragments) ([1]; 25° C. @ 4 Wks)	Ab (intact antibody) ([1]; 25° C. @ 8 Wks)	Agg (aggregates) ([1]; 25° C. @ 8 Wks)	Frgm (fragments) ([1]; 25° C. @ 8 Wks)	Ab (intact antibody) ([1]; 40° C. @ 4 Wks)	Agg (aggregates) ([1]; 40° C. @ 4 Wks)	Frgm (fragments) ([1]; 40° C. @ 4 Wks)	Ab (intact antibody) ([1]; 40° C. @ 8 Wks)	Agg (aggregates) ([1]; 40° C. @ 8 Wks)	other results
B1	100.0 percentage	0.0 percentage	0.0 percentage	100.0 percentage	0.0 percentage	0.0 percentage	100.0 percentage	0.0 percentage	0.0 percentage	100.0 percentage	0.0 percentage	0.0 percentage	100.0 percentage	0.0 percentage	0.0 percentage	100.0 percentage	0.0 percentage	0.0 percentage	100.0 percentage	0.0 percentage	Frgm (fragments) ([1]; 40° C. @ 8 Wks): 0.0 percentage; aggregation and fragmentation in stability analysis [1]: Neither aggregation nor fragmentation was detected; maintained as intact monomeric molecule ([1]; all conditions tested (freeze-thaw; 4, 25, 40° C. for 4 and 8 weeks)): 100%; SEC profile of purified protein (physical homogeneity) [1]: a single peak; koff (hIL-1α): 0.000252 s⁻¹; kon (hIL-1α): 73500 M⁻¹ s⁻¹; Kd (hIL-1α): 3.42 nM
B2	53.50 percentage	46.50 percentage	0.00 percentage	56.63 percentage	42.43 percentage	0.94 percentage	56.91 percentage	38.18 percentage	4.91 percentage	54.34 percentage	45.66 percentage	0.00 percentage	67.39 percentage	24.42 percentage	8.19 percentage	59.42 percentage	36.70 percentage	3.88 percentage	67.16 percentage	20.55 percentage	Frgm (fragments) ([1]; 40° C. @ 8 Wks): 12.29 percentage; aggregation and fragmentation in stability analysis [1]: showed aggregations in PBS under different conditions; SEC profile of purified protein (physical homogeneity) [1]: a major peak as well as a shoulder peak on the right; koff (hIL-1α): 0.000105 s⁻¹; kon (hIL-1α): 37000 M⁻¹ s⁻¹; Kd (hIL-1α): 2.83 nM; Stoichiometry (hIL-1α; saturating binding conditions): 1.8

From patent US8889130B2, “Treatment of osteoarthritis and pain” (Abbvie Inc., priority 2011, dated 2014)
